Results published in patent publication US20240092930A1 (MABWELL SHANGHAI BIOSCIENCE, published 2024).

T1: recombinant human Trop-2-his protein (ACCESSION NO.: NP_002344.2, AA 1-274) (human, UniProt P09758 27-274)
T1 construct: range 27-274; also called recombinant human Trop-2 protein; recombinant human Trop-2 extracellular domain; not shown: his tag
T1 sequence (looked up): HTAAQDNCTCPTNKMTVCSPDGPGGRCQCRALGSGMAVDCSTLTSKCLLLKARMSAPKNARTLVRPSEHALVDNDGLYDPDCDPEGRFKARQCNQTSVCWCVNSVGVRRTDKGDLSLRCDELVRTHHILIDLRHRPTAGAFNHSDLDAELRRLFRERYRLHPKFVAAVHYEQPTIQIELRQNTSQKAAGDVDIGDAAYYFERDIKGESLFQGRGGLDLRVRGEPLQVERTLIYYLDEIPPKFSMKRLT

T2: recombinant cynomolgus Trop-2-his protein (ACCESSION NO.: UniProtKB-A0A2K5UE71, AA 1-272) (cynomolgus, UniProt A0A2K5UE71 1-272)
T2 construct: The printed range begins at residue 1; not shown: his tag
T2 sequence: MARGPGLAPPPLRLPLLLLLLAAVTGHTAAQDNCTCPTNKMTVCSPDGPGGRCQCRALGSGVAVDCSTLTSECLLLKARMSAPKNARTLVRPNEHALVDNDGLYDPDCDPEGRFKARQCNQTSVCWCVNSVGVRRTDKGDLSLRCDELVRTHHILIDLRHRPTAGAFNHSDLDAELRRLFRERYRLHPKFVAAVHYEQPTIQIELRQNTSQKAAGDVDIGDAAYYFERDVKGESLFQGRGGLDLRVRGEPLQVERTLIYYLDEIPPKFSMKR

B1: h23-12-25 (antibody, human IgG1, kappa, V domains shown)
VH: QVQLVQSGAEVKKPGASVKVSCKASGYTFTSYWMHWVRQAPGQGLEWMGEITPSDNYGSYNQKFKGRVTITRDTSTSTAYMELSSLRSEDTAVYYCARGHGNYVSFDYWGQGTLVTVSS
VL: DIQMTQSPSSLSASVGDRVTITCRASQDISNYLNWYQQKPGKAPKLLIYYTSRLESGVPSRFSGSGSGTDFTLTISSLQPEDFATYFCQQGYTLPPYTFGQGTKLEIKR
notes: also called h32-12
B2: Sacituzumab (antibody, human IgG1, kappa, V domains shown)
VH: QVQLQQSGSELKKPGASVKVSCKASGYTFTNYGMNWVKQAPGQGLKWMGWINTYTGEPTYTDDFKGRFAFSLDTSVSTAYLQISSLKADDTAVYFCARGGFGSSYWYFDVWGQGSLVTVSS
VL: DIQLTQSPSSLSASVGDRVSITCKASQDVSIAVAWYQQKPGKAPKLLIYSASYRYTGVPDRFSGSGSGTDFTLTISSLQPEDFAVYYCQQHYITPLTFGAGTKVEIKR
notes: expressed in HEK293; also called control antibody Sacituzumab; Saituzumab

What was measured:
[1] = biological target: T1, recombinant human Trop-2-his protein …; test: BLI, naked antibody on AHC sensor, Trop-2-his 60 nM, 300 s binding
Procedure: (§1) Affinities of the antibodies were determined by an assay including capturing Fc fragments of the antibodies with anti-human IgG Fc capture (AHC) biosensors using Octet QKe system instrument from Fortebio.
For the assay, SN38-labeled antibodies prepared as described above: h23-12-SN38, ch4-3-SN38, ch11-4-SN38, and positive control antibody Sacituzumab-SN38, as well as naked antibodies h23-12, ch4-3, ch11-4, and positive control antibody Sacituzumab were diluted to 4 μg/ml with PBS and allowed to flow through the surface of an AHC biosensor (Cat.: 18-0015, PALL) for 120 s. Recombinant human Trop-2-his protein (ACCESSION NO.: NP_002344.2, AA 1-274) was used as a mobile phase, and its concentration was 60 nM. The binding time was 300 s and the dissociation time was 300 s. When the assay was finished, data from which the response value of blank control had been deducted were fitted to a 1:1 Langmuir binding model using software, and then kinetic constants for antigen-antibody binding were calculated.

[2] = biological target: T1, recombinant human Trop-2-his protein …; test: BLI, antibody on AHC sensor, Trop-2-his 23, 30, 45, 75 nM
Procedure: as §1
For the assay, each of the antibodies (h23-12, h4-3, and control antibody Sacituzumab) was diluted to 4 μg/ml in PBS, and was allowed to flow through the surface of an AHC biosensor (Cat.: 18-0015, PALL) for 120 s. Recombinant human Trop-2-his protein (ACCESSION NO.: NP_002344.2, AA 1-274) was used as a mobile phase. The Trop-2-his protein was used in following concentrations which corresponded to different antibodies: in case of h23-12, the Trop-2 was used in concentrations of 23, 30, 45, and 75 nM; in case of h4-3, it was used in concentrations of 23, 30, 45, and 60 nM; and in case of Sacituzumab, it was used in concentrations of 23, 30, 45, and 75 nM. The binding time was 100 s and the dissociation time was 300 s. When the assay was finished, data from which the response values of blank control had been deducted were fitted to a 1:1 Langmuir binding model using software, and then kinetic constants for antigen-antibody binding were calculated.

[3] = biological target: T1, recombinant human Trop-2-his protein …; test: BLI, antibody on AHC sensor, Trop-2-his 60 nM
Outline: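 Octet BLI: humanized antibodies at 4 μg/ml in PBS captured 120 s on anti-human IgG Fc (AHC) biosensors, then exposed to 60 nM Trop-2-his (AA 1-274) for 100 s association and 300 s dissociation. Blank-subtracted data fitted to 1:1 Langmuir model for kinetic constants.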

[4] = biological target: T2, recombinant cynomolgus Trop-2-his …; test: ELISA, coated cynomolgus Trop-2-his 1 µg/ml
Procedure: Washed with PBS 3 times, the plates were blocked with the added 5% BSA PBS at 37° C. for 60 min, and then washed 3 times with PBST. Different concentrations of h23-12 (serial dilutions of 14 concentrations obtained through 3-fold serially diluting a solution with an initial concentration of 10 μg/ml), h4-3 (serial dilutions of 12 concentrations obtained through 3-fold serially diluting a solution with an initial concentration of 3 μg/ml), and Sacituzumab (serial dilutions of 12 concentrations obtained through 3-fold serially diluting a solution with an initial concentration of 3 μg/ml) were added into the plates, with each concentration provided in a parallel well. The plates were incubated at 37° C. for 60 min, and then were washed 4 times with PBST. 1:5000 dilution of H1RP-anti-human Fc (Cat.: 109-035-098, Jackson ImmunoResearch) was added into the plates for incubation at 37° C. for 30 min. Afterwards, the plates were washed with PBST 4 times, and TMB substrate was added for color development at 37° C. for 10 min. Then 2M HCl was added to stop reaction; and absorbances at 450 nm and at 630 nm (as reference wavelength) were read, and A450 nm-630 nm values of the wells in the plates were recorded.

| Binder | Kd [1] [nM] | Kd [2] [nM] | koff [2] [s⁻¹] | kon [2] [M⁻¹ s⁻¹] | Kd [3] [nM] | EC50 [4] [nM] |
| --- | --- | --- | --- | --- | --- | --- |
| B1 | 0.507 | 0.64 | 0.000114 | 178000 | 0.502 | 0.124 |
| B2 | 0.583 | 0.941 | 0.000194 | 208000 | 0.723 | 0.0726 |
